Laboratory results as given in publication PMC3169398, “Structures of phosphopantetheine adenylyltransferase from Burkholderia pseudomallei” (Acta Crystallographica Section F: Structural Biology and …, 2011).

Molecular target: the molecule itself
Assay: crystal structure

| Protein | stoichiometry N |
| --- | --- |
| Phosphopantetheine adenylyltransferase from B. pseudomallei strain 1710b, tag removed (GPGS-ORF) (enzyme, also called Bp PPAT; PPAT) MVVAVYPGTFDPLTRGHEDLVRRASSIFDTLVVGVADSRAKKPFFSLEERLKIANEVLGHYPNVKVMGFTGLLKDFVRANDARVIVRGLRAVSDFEYEFQMAGMNRYLLPDVETMFMTPSDQYQFISGTIVREIAQLGGDVSKFVFPSVEKWLTEKVAAMAQGPSA | 6 |
| Phosphopantetheine adenylyltransferase from B. pseudomallei strain 1710b, with the full-length expression tag (…-ORF) (enzyme, also called Bp PPAT; PPAT) MVVAVYPGTFDPLTRGHEDLVRRASSIFDTLVVGVADSRAKKPFFSLEERLKIANEVLGHYPNVKVMGFTGLLKDFVRANDARVIVRGLRAVSDFEYEFQMAGMNRYLLPDVETMFMTPSDQYQFISGTIVREIAQLGGDVSKFVFPSVEKWLTEKVAAMAQGPSA | 6 |
